One block for each binder: values may come before it.
Legend:
[1] = molecular target: the molecule itself; test: SEC-MALS + other: SAXS; SEC-MALS on Superdex S200 Increase 10/300 in TBS (20 mM Tris-HCl pH 7.4, 150 mM NaCl); SEC-SAXS on Superdex S200 Increase 3.2 in TBS, injected at 5 mg/ml, +10°C
[2] = molecular target: T1, Drosophila Arc1 N-lobe (Drosophila); test: as above; details: both partners purified
T1 chain: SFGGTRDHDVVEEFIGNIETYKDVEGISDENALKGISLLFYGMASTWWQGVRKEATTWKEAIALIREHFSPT

B1: Drosophila Arc1 C-lobe (domain or fragment)
chain: KPAYQIYMEFFQNKQDDHDPIDTFVIQKRALLAQLPSGRHDEETELDLLFGLLNIKYRKHISRHSVHTFKDLLEQGRIIEHNNQED
notes: Arc1 (dArc1) of Drosophila, isolated C-lobe; monomeric mass 11 kDa; Dimer in the crystal and in solution; also called dArc1-CL; source: E. coli BL21(DE3), purified (Ni-NTA, TEV cleavage, second Ni-NTA, amylose resin, Superdex S200); not shown: His tag, N-terminal, cleaved; MBP, N-terminal, cleaved
- stoichiometry N [1]: 2

B2: Drosophila Arc2 N-lobe (domain or fragment)
chain: RFSGQRDHDAVDEFINAVETYKEVEGISDKDALKGLPLLFKSIAVVWWKGVRRDAKTWSDALQLLRDHFSPT
notes: monomeric mass 8.4 kDa; Tetramer in solution (SEC-MALS, SAXS); domain-swapped dimer in the crystal; also called dArc2-NL; source: E. coli BL21(DE3), purified (Ni-NTA, TEV cleavage, second Ni-NTA, Superdex S200); not shown: His tag, N-terminal, cleaved; MBP, N-terminal, cleaved
- stoichiometry N [1]: 4

- stoichiometry N [2]: 2
B3: Drosophila Arc1 N-lobe (domain or fragment)
chain: T1 chain
modifications: limits inferred from the homologous dArc2-NL construct (6SIB, 37-109), the 8.2 kDa monomer mass and the dArc1-CL start at 123 (6SID); start uncertain by about 1 residue; dimer in solution / limits …

B4: Drosophila Arc2 C-lobe (domain or fragment)
chain: KPSYQIYMEIFETKQSYDEVIDSFICKQRALLAKLPEGRHDEETELDFIYGLMQPKYRESIPRHEVKTFRELLDRGRTVERTRH
notes: Arc2 (dArc2) of Drosophila, isolated C-lobe; monomeric mass 10 kDa; Dimer in the crystal and in solution; also called dArc2-CL; source: E. coli BL21(DE3), purified (Ni-NTA, TEV cleavage, second Ni-NTA, amylose resin, Superdex S200); not shown: His tag, N-terminal, cleaved; MBP, N-terminal, cleaved
- stoichiometry N [1]: 2

Source: article PMC8121366, “Crystal and solution structures reveal oligomerization of individual capsid homology domains of Drosophila Arc” (PLoS ONE, 2021)
